The text below walks through data of paper PMC9378563.

For experiment [1], the target named is L21A variant of HIV-1 gp41 Core (Core^L21A) (HIV-1 (HXB2 numbering named)). In words: NMR, 15N ZZ exchange.
The target is the same in experiment [2]. In words: SEC-MALS. (SEC sorts molecules by how far they enter the pores of the column.)
The target is the same in experiment [3]. In words: NMR, 1H-15N HSQC resonance amplitudes of trimer and monomer.

For “L21A variant of HIV-1 gp41 Core (Core^L21A) (domain or fragment)”, the kex (koff[B]^2 + 3kon[M]^2) in experiment [1] is 1.05 s⁻¹. In experiment [2], this substance showed a stoichiometry N of 3. Moreover, in experiment [3], the Kd = [M]^3/([T][B]^2) (6HB trimer + 2 bicelles to 3 lipid-bound monomers) came out at 2.8 and the population of the lipid-bound (monomeric) state was found to be 71%.

As a reminder, the stoichiometry N is the number of molecules, sites or subunits per partner or assembly.
